Tests used:
[1] = biological target: galectin-4 C-terminal carbohydrate recognition domain (Gal-4C) (human); assay: AUC
[2] = biological target: galectin-4 C-terminal carbohydrate recognition domain (Gal-4C) (human); assay: cross-linking
[3] = biological target: the molecule itself; assay: cross-linking

Row | Molecule | stoichiometry N [1] | stoichiometry N [2] | stoichiometry N [3]
1 | galectin-4 C-terminal carbohydrate recognition domain (Gal-4C) (domain or fragment) | 2 | 2 | 
2 | galectin-4 (Gal-4), full-length (natural protein, human, UniProt P56470 1-323, looked up) MAYVPAPGYQPTYNPTLPYYQPIPGGLNVGMSVYIQGVASEHMKRFFVNFVVGQDPGSDVAFHFNPRFDGWDKVVFNTLQGGKWGSEERKRSMPFKKGAAFELVFIVLAEHYKVVVNGNPFYEYGHRLPLQMVTHLQVDGDLQLQSINFIGGQPLRPQGPPMMPPYPGPGHCHQQLNSLPTMEGPPTFNPPVPYFGRLQGGLTARRTIIIKGYVPPTGKSFAINFKVGSSGDIALHINPRMGNGTVVRNSLLNGSWGSEEKKITHNPFGPGQFFDLSIRCGLDRFKVYANGQHLFDFAHRLSAFQRVDTLEIQGDVTLSYVQI |  |  | 2
3 | Gal-4NM (R67H), N-terminal domain mutant of full-length Gal-4 (natural protein, human, UniProt P56470 1-323, looked up) MAYVPAPGYQPTYNPTLPYYQPIPGGLNVGMSVYIQGVASEHMKRFFVNFVVGQDPGSDVAFHFNPHFDGWDKVVFNTLQGGKWGSEERKRSMPFKKGAAFELVFIVLAEHYKVVVNGNPFYEYGHRLPLQMVTHLQVDGDLQLQSINFIGGQPLRPQGPPMMPPYPGPGHCHQQLNSLPTMEGPPTFNPPVPYFGRLQGGLTARRTIIIKGYVPPTGKSFAINFKVGSSGDIALHINPRMGNGTVVRNSLLNGSWGSEEKKITHNPFGPGQFFDLSIRCGLDRFKVYANGQHLFDFAHRLSAFQRVDTLEIQGDVTLSYVQI |  |  | 2
4 | Gal-4CM (R240H), C-terminal domain mutant of full-length Gal-4 (natural protein, human, UniProt P56470 1-323, looked up) MAYVPAPGYQPTYNPTLPYYQPIPGGLNVGMSVYIQGVASEHMKRFFVNFVVGQDPGSDVAFHFNPRFDGWDKVVFNTLQGGKWGSEERKRSMPFKKGAAFELVFIVLAEHYKVVVNGNPFYEYGHRLPLQMVTHLQVDGDLQLQSINFIGGQPLRPQGPPMMPPYPGPGHCHQQLNSLPTMEGPPTFNPPVPYFGRLQGGLTARRTIIIKGYVPPTGKSFAINFKVGSSGDIALHINPHMGNGTVVRNSLLNGSWGSEEKKITHNPFGPGQFFDLSIRCGLDRFKVYANGQHLFDFAHRLSAFQRVDTLEIQGDVTLSYVQI |  |  | 2
